Here are results for two substances from PMC10241913.

Test [1] deals with UBXD1 UBX extension (269–330), for fluorescence anisotropy (human) (UniProt Q9BZV1). The test can be described thus: fluorescence polarisation; fluorescence anisotropy; Atto594-labeled UBXD1 proteins, p97 constructs titrated; 50 mM NaKPi pH 7.5, 25 °C; all fitted with stoichiometry n = 1.
In a further test the target is ubiquitin (wild type) (UniProt P0CG48). The test can be described thus: NMR titration; 1H-15N-HSQC titrations of ubiquitin with UBXD1, UBXD1-eUBX R305A, PUB or the UBX extension; 50 mM sodium potassium phosphate pH 7.5, 25 °C.

Take “p97-wt (1–806) (from UniProt P55072 1-806) (enzyme)”: the Kd (in general, the concentration at which binding is half-saturated) in test [1] was 191 µM. For “UBXD1-eUBX R305A (from UniProt Q9BZV1 1-441) (domain or fragment)”, the Kd with ubiquitin (wild type) amounted to 155 µM.
